The data set in a line: protein stability index of a GFP-peptide fusion (GPS, HEK-293T) (PSI 1-6); higher = more stable.
Setting [1] is: treatment: DMSO, c terminus: a fixed tail appended.
[2] abbreviates: treatment: MLN4924 1 uM, 8 h, c terminus: a fixed tail appended.

± gives the standard deviation.
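Also: 24-mer peptide tiles fused after GFP, lentivirally expressed, FACS-sorted into six equal bins by GFP/DsRed ratio, decoded by Illumina sequencing, PSI is the read-weighted mean bin number.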

In the case of ASLLQPVTPLGTSRWRKISAALPY [NCF4], the protein stability index by setting is: under setting [1], 2.46 ± 0.4; under setting [2], 2.61 ± 0.3.

Take LGDRLNVEVDTAPTVDLNQVLNET [KRT34]: the protein stability index by setting is: under setting [1], 4.87 ± 0.15; under setting [2], 4.96 ± 0.29.

QRKVDGIQKAYDELRLQSEAFKKH [CCDC89]: the protein stability index stood at 4.07 ± 0.19 under setting [1] and 4.21 ± 0.3 under setting [2].

With DTFHQDNQPSGLIRTYLGRSPLVS [RHOBTB3], the protein stability index is 3.24 ± 0.1 under setting [1] and 3.24 ± 0.16 under setting [2].

Regarding DGLKRRQQLEEELLRAKIEVEKLK [RAD54B], the protein stability index runs as follows: under setting [1], 4.67 ± 0.31; under setting [2], 4.85 ± 0.32.

Turning to GEDCKLPPQPCATACKPVIRVPSV [KRT36], the protein stability index runs as follows: under setting [1], 3.3 ± 0.22; under setting [2], 3.23 ± 0.22.

For the sequence ATYISEVHEHDGHLYLGSFRSPFL [APMAP], the protein stability index was 2.37 ± 0.4 under setting [1] and 1.97 ± 0.14 under setting [2].

In the case of LSRYQNELAGVDTELLAERFYYQA [SMG5], the protein stability index runs as follows: under setting [1], 2.7 ± 0.51; under setting [2], 2.81 ± 0.43.

As for EVEVVEEAKCCCFFKRKRKKTAQR [CSNK1G1], the protein stability index is, setting by setting: under setting [1], 4.4 ± 0.41; under setting [2], 4.45 ± 0.12.

For the sequence SLDGKAIKVEQATKPSFESGRRGP [RBMX], the protein stability index by setting is: under setting [1], 4.84 ± 0.4; under setting [2], 4.94 ± 0.35.

RCCGAASYQDWQQNLYFNCSSPGV [TSPAN10]: the protein stability index was found to be 2.37 ± 0.42 under setting [1] and 2.33 ± 0.66 under setting [2].

On to DEPSKPTLALEYTYGRRAKGHNTP [DYNC2LI1], for which the protein stability index by setting is: under setting [1], 4.48 ± 0.23; under setting [2], 4.65 ± 0.21.

Consider DAGEESRVQVLKNEVRRGSPVLLG [TIAF1], for which the protein stability index was 4.33 ± 0.092 under setting [1] and 4.55 ± 0.24 under setting [2].

For the sequence QACARNILVQTPESESPQSHRAAG [TRIM9], the protein stability index amounted to 4.46 ± 0.16 under setting [1] and 4.5 ± 0.27 under setting [2].

As for QPTTLVLPPQYVDDVISRIDRMFP [MED27], the protein stability index under setting [1] is 3.67 ± 0.24 and the protein stability index under setting [2] is 3.98 ± 0.074.

As to METSPSEEDSFYRSSYPQQQGLGA [TBX5], the protein stability index runs as follows: under setting [1], 4.37 ± 0.073; under setting [2], 4.47 ± 0.17.

Consider ISESGGLNWKMTLCLLVAWSIVGM [SLC6A17], for which the protein stability index is, setting by setting: under setting [1], 2.71 ± 0.28; under setting [2], 2.83 ± 0.67.

The sequence FSTGIKMGQHISLAPIHKLEEALY [MNAT1] came in with a protein stability index under setting [1] of 2.28 ± 0.48 and a protein stability index under setting [2] of 2.08 ± 0.26.

FQIYDKEASGYVDRDMFFKICESL [EFHC1]: the protein stability index was 2.29 ± 0.15 under setting [1] and 2.5 ± 0.15 under setting [2].

Regarding EEQALTKAAEGGLSSPEFSELCIW [FAM98B], the protein stability index under setting [1] is 3.72 ± 0.052 and the protein stability index under setting [2] stood at 3.65 ± 0.11.

Take QTLDVNRDGGLCVNDLAVGLRRLG [SLC25A25]: the protein stability index was 2.98 ± 0.23 under setting [1] and 3.18 ± 0.3 under setting [2].

Take AEKRKRQAEIENKRRQLEDERRQL [PALM]: the protein stability index came out at 4.68 ± 0.5 under setting [1] and 4.94 ± 0.32 under setting [2].

MSQGPPTGESSEPEAKVLHTKRLY [SMG5]: the protein stability index is 4.81 ± 0.24 under setting [1] and 4.94 ± 0.15 under setting [2].

With YSAPPGDPLSTNYSLAPNTPINQN [NFE2L1], the protein stability index under setting [1] worked out at 4.48 ± 0.27 and the protein stability index under setting [2] amounted to 4.54 ± 0.2.

In the case of RPWADTCSSSGKDGNLCLHVPNPP [HESX1], the protein stability index came out at 3.48 ± 0.14 under setting [1] and 3.81 ± 0.19 under setting [2].

In the case of ICGIICIGPNVLMVHKRSHTGERP [IKZF1], the protein stability index runs as follows: under setting [1], 2.46 ± 0.28; under setting [2], 2.02 ± 0.38.

For the sequence LPWSSVLRVWDMFFCEGVKIIFRV [TBC1D10A], the protein stability index stood at 2.96 ± 0.72 under setting [1] and 3.34 ± 0.86 under setting [2].

In turn, CTRPVPRNGGKYCEGRRTRFRSCN [ADAMTS4] returned a protein stability index under setting [1] of 3.79 ± 0.14 and a protein stability index under setting [2] of 4.12 ± 0.24.

ALADVEVKYIVERTMLDFPQHVSS [NLN]: the protein stability index came to 2.38 ± 0.36 under setting [1] and 2.39 ± 0.16 under setting [2].

Take IDDLFAFVIKMPVMYRIGCLRDDV [CLPTM1]: the protein stability index reads like this: under setting [1], 3.07 ± 0.97; under setting [2], 3.2 ± 0.74.

In the case of GKPLYLIFRNLCQMQEDNSSFSLL [INTS3], the protein stability index was 2.37 ± 0.41 under setting [1] and 2.28 ± 0.38 under setting [2].

In the case of TFDTGCLTLSQYILLDPILMFFIM [POMT2], the protein stability index runs as follows: under setting [1], 2.35 ± 0.52; under setting [2], 2.33 ± 0.36.

For DSDEATAARLLFNMAGVTFRKFIP [DCTD], the protein stability index reads like this: under setting [1], 2.55 ± 0.19; under setting [2], 2.58 ± 0.59.

In the case of SVGDPCGGAICGGPDHRLRLWRLF [SLC25A25], the protein stability index under setting [1] came to 2.35 ± 0.59 and the protein stability index under setting [2] stood at 2.62 ± 0.21.

Consider LGLLDDYLEVAKHFKPHGFSSDKA [ATF4], for which the protein stability index is, setting by setting: under setting [1], 2.89 ± 0.19; under setting [2], 3.07 ± 0.91.

Regarding LAPTFSNLLLQPTTNPHTSASHRP [SMG5], the protein stability index worked out at 3.55 ± 0.15 under setting [1] and 3.61 ± 0.26 under setting [2].

Turning to VLQHVRLPLLSPKFLVGTVGSDPL [KLHL20], the protein stability index runs as follows: under setting [1], 2.22 ± 0.28; under setting [2], 2.13 ± 0.1.

Under setting [1], ALKLIIRLFLVEDLVDSLKLAVFM [RTN3] came in with a protein stability index of 3.69 ± 0.17.

On to LTAQGQQFHCHKAVLASCSQYFRS [KLHL14], for which the protein stability index runs as follows: under setting [1], 2.27 ± 0.25; under setting [2], 2.37 ± 0.33.

The sequence KKAYDYFQAKKIPIVSSLADPLDT [PDZK1] yielded a protein stability index under setting [1] of 3.64 ± 0.23 and a protein stability index under setting [2] of 3.88 ± 0.35.

In turn, GSPFGLEEPQWVPDKECRRCMQCD [ZFYVE21] yielded a protein stability index under setting [1] of 4.1 ± 0.29 and a protein stability index under setting [2] of 4.07 ± 0.28.

Take WDLRMKLHDRGAQVIHPQEFRRWR [DNAAF3]: the protein stability index reads like this: under setting [1], 2.77 ± 0.35; under setting [2], 3.02 ± 0.28.

Consider EAVESTLQTPLDIRLKESINCQLS [TRIM14], for which the protein stability index came out at 4.38 ± 0.44 under setting [1] and 4.34 ± 0.36 under setting [2].

Consider SPSPMSHGHYSMHCLHSAGHSQPD [DLX1], for which the protein stability index reads like this: under setting [1], 3.82 ± 0.18; under setting [2], 3.91 ± 0.21.

In turn, KEACDQHGPDLYPKFKKWCDDYFF [CPOX] returned a protein stability index under setting [1] of 2.31 ± 0.27 and a protein stability index under setting [2] of 2.58 ± 0.32.

PTQVPAAEDYLTWKEWGFTGVQEV [SPAG8]: the protein stability index runs as follows: under setting [1], 3.5 ± 0.24; under setting [2], 3.59 ± 0.31.

In the case of VPVPPAAAPPPPATPIVPVVPPTP [BRD3], the protein stability index is, setting by setting: under setting [1], 4.75 ± 0.43; under setting [2], 4.75 ± 0.16.

Consider ELKMRAIQAEERLDMEKRRCRQSL [LRRC45], for which the protein stability index was determined as 3.92 ± 0.22 under setting [1] and 4.13 ± 0.11 under setting [2].

As to NTKNEISELTRLIQRIRSEIENVK [KRT71], the protein stability index runs as follows: under setting [1], 2.83 ± 0.14; under setting [2], 2.78 ± 0.24.

Consider KFLAKVNGSDPRSFPLWYEEALKD [MAGEA10], for which the protein stability index by setting is: under setting [1], 2.62 ± 0.39; under setting [2], 3.06 ± 0.4.

As for DSNSGCLGDTQFCFRFRQSSGRRV [DENND6A], the protein stability index by setting is: under setting [1], 3.24 ± 0.35; under setting [2], 3.06 ± 0.52.

Consider SVVTEDGPEPKDKGSLPQPPITEV [ZNF232], for which the protein stability index reads like this: under setting [1], 5.5 ± 0.2; under setting [2], 5.48 ± 0.18.

LKASEPGLFAVGEHTGEVRTARAL [PCDHGA10]: the protein stability index under setting [1] was determined as 4.06 ± 0.35 and the protein stability index under setting [2] was 4.21 ± 0.16.

On to FENGQKAAVVHHFESFPAGSTLIF [TOR1AIP2], for which the protein stability index under setting [1] was determined as 2.05 ± 0.42 and the protein stability index under setting [2] stood at 2.12 ± 0.2.

Turning to AVTKDFKLTDKHETVVSYLPLSHI [ACSBG2], the protein stability index under setting [1] is 2.98 ± 0.075 and the protein stability index under setting [2] is 3.08 ± 0.64.

Consider PVKELAALPKATILDLSCNKLTTL [LRRC59], for which the protein stability index runs as follows: under setting [1], 3.26 ± 0.1; under setting [2], 3.43 ± 0.35.

Consider TREWTQLKPNNLSCDLPEERYRHE [KLHDC10], for which the protein stability index runs as follows: under setting [1], 4.61 ± 0.3; under setting [2], 4.71 ± 0.13.

With ILNPHVHVIGEDAACIAYIRLTQY [CAMK2B], the protein stability index by setting is: under setting [1], 2.51 ± 0.63; under setting [2], 2.31 ± 0.27.

As to ERSDPVEQGKPVIPAAVLAGFTGS [ETS2], the protein stability index runs as follows: under setting [1], 4.59 ± 0.23; under setting [2], 4.7 ± 0.31.

With SSSASSSFSEEGAVGYSSDSETLD [NFE2L1], the protein stability index was determined as 5.65 ± 0.13 under setting [1] and 5.655 ± 0.043 under setting [2].

YVDSPALTNIWMARTCAKQNINAP [C22orf31]: the protein stability index was 3 ± 0.59 under setting [1] and 2.36 ± 0.24 under setting [2].

Take SPMPYVKWMLGAEDLTPEDDMPIG [PTPRD]: the protein stability index is, setting by setting: under setting [1], 4.3 ± 0.26; under setting [2], 4.17 ± 0.48.

In the case of QSDVGVAVFENKIYVVGGYSWNNR [KLHL13], the protein stability index is, setting by setting: under setting [1], 2.19 ± 0.34; under setting [2], 2.26 ± 0.12.

As to QACMGGRCLHMDQLQDFNIPQAGG [ADAMTS4], the protein stability index under setting [1] came out at 3.38 ± 0.15 and the protein stability index under setting [2] was 3.21 ± 0.09.

NILLDKHRMVVKIGDFGISKILSS [NEK8]: the protein stability index reads like this: under setting [1], 2.19 ± 0.15; under setting [2], 2.09 ± 0.17.

Turning to AEHWTKEHCGAVCFVKDNPQKSYF [WAS], the protein stability index runs as follows: under setting [1], 2.92 ± 0.39; under setting [2], 2.98 ± 0.23.

As for HRQETVECLKKFNARRKLKGAILT [CAMK2B], the protein stability index under setting [1] amounted to 2.79 ± 0.24 and the protein stability index under setting [2] worked out at 2.98 ± 0.29.

Take AALPLAAEETANLPPSPPPSPASE [MAP2]: the protein stability index runs as follows: under setting [1], 5.27 ± 0.13; under setting [2], 5.09 ± 0.18.

For AKEMSVPFYTSRIDEVLLHQDVDL [GFOD1], the protein stability index reads like this: under setting [1], 3.74 ± 0.59; under setting [2], 3.88 ± 0.35.

LPNASADSLGGSQEMVQRPQPHRN [TRAF3IP2]: the protein stability index by setting is: under setting [1], 5.25 ± 0.13; under setting [2], 5.26 ± 0.16.

Consider LLESPQLATLAEDVTAALAKQGL [MAP2], for which the protein stability index (treatment: DMSO, c terminus: native) worked out at 4.66 ± 0.21 and the protein stability index (treatment: MLN4924 1 uM, 8 h, c terminus: native) was found to be 4.53 ± 0.2.

Turning to FVLNRLQYAIISEAWRLVEEGIVS [CRYL1], the protein stability index is, setting by setting: under setting [1], 3.17 ± 0.66; under setting [2], 3.09 ± 0.24.
